Source: patent US20260069689A1

Columns and labels:
hACE-2-10His (human) = hACE-2-10His (human) (UniProt Q9BYF1); experiment: ELISA, hACE-2-10His coated on the plate
[1] = target: T1, human CD20 on Jurkat cells (human) (UniProt P11836); experiment: cell-based or functional assay
T1 sequence: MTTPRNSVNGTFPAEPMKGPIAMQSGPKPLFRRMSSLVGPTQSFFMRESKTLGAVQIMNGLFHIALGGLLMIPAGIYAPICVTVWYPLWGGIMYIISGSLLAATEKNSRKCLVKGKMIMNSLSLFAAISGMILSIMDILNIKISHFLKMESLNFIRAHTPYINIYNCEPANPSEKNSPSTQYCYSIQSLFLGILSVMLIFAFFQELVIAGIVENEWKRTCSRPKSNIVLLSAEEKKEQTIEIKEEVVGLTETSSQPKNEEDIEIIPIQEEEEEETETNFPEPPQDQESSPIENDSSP

[2] = target: full-length SARS-CoV-2 spike protein (Wuhan-Hu-1) on Jurkat/hCD20 cells (SARS-CoV-2) (UniProt P0DTC2); experiment: cell-based or functional assay
[3] = target: human FcγR3a 176Val allotype receptor (human) (UniProt P08637); experiment: cell-based or functional assay

Substance | Max ADCP (%), MDM donor #1, Jurkat/hCD20 cells [1] | Max ADCP (%), MDM donor #2, Jurkat/hCD20 cells [1] | Max cytotoxicity (%), ADCC, NK donor #1, Jurkat/hCD20 cells [1] | Max cytotoxicity (%), ADCC, NK donor #2, Jurkat/hCD20 cells [1] | Max cytotoxicity (%), ADCC, NK donor #3, Jurkat/hCD20 cells [1] | Max ADCP (%), MDM donor #1, Jurkat/hCD20/SARS-CoV-2 S FL cells [2] | Max ADCP (%), MDM donor #2, Jurkat/hCD20/SARS-CoV-2 S FL cells [2] | Max cytotoxicity (%), ADCC, NK donor #1, Jurkat/hCD20/SARS-CoV-2 S FL cells [2] | Max cytotoxicity (%), ADCC, NK donor #2, Jurkat/hCD20/SARS-CoV-2 S FL cells [2] | Max cytotoxicity (%), ADCC, NK donor #3, Jurkat/hCD20/SARS-CoV-2 S FL cells [2] | EC50 (M) of ADCC, NK donor #3, Jurkat/hCD20/SARS-CoV-2 S FL cells [2] | EC50 (M) of ADCP, MDM donor #1, Jurkat/hCD20/SARS-CoV-2 S FL cells [2] | EC50 (M) of ADCP, MDM donor #2, Jurkat/hCD20/SARS-CoV-2 S FL cells [2] | EC50 (M), Jurkat/CD20/spike [3] | EC50 [M] of ADCP, macrophages, Jurkat/hCD20/SARS-CoV-2 spike cells [2] | Max % ADCP, macrophages, Jurkat/hCD20/SARS-CoV-2 spike cells [2] | further results
SARS-CoV-2 RBD.mmh | – | – | – | – | – | – | – | – | – | – | – | – | – | – | – | – | EC50 (hACE-2-10His (human)): 300 pM
IgG1 isotype control (antibody) | 16.9% | 14.6% | 0.7% | 6.4% | 0.5% | 13.1% | 9.6% | 1.8% | 0% | 0% | – | – | – | – | – | – | Max cytotoxicity (%), ADCC, pooled primary NK cells, Jurkat/hCD20 cells [1]: 0.6%
casirivimab + imdevimab | – | – | – | – | – | 49.5% | 48.2% | 1.6% | 4.1% | 15.4% | 3.6e-11 M | 1.2e-10 M | 5.78e-11 M | – | – | – | –
mAb10987 (antibody) | 14.8% | 10.7% | 3.9% | 1.9% | – | 32.3% | 30.4% | 8.1% | 10.5% | 26.6% | 6.44e-11 M | 2.91e-11 M | 1.98e-11 M | 4.71e-10 M | 3.19e-11 M | 36.3% | EC50 (M) of ADCC, NK donor #1, Jurkat/hCD20/SARS-CoV-2 S FL cells [2]: 7.42e-10 M; EC50 (M) of ADCC, NK donor #2, Jurkat/hCD20/SARS-CoV-2 S FL cells [2]: 5.05e-09 M
mAb10933 (antibody) | 14% | 11.5% | 4.7% | 3.6% | 1.2% | 28.3% | 28.6% | 1.4% | 5% | 11.1% | 4.89e-11 M | 9.7e-12 M | 2.23e-11 M | 6.47e-10 M | 3.88e-11 M | 33.1% | Fold induction, Jurkat CD20 [3]: 1.1 fold; Fold induction, Jurkat/CD20/spike [3]: 2.9 fold
